The values that follow come from US20230036041A1, “SORTILIN BINDING CONJUGATE COMPOUNDS, COMPOSITIONS AND USES THEREOF FOR TREATING CANCER” (THERATECHNOLOGIES INC., priority 2019, published 2023).

Non-standard residues stand in square brackets, D forms with d. No end group written: not given here. Nle = CCCC[C@H](N)C(=O)O

This assay concerns the target T1, sortilin (Homo sapiens, UniProt Q99523).
T1 construct: endogenous in cells
T1 sequence (Q99523 78-831): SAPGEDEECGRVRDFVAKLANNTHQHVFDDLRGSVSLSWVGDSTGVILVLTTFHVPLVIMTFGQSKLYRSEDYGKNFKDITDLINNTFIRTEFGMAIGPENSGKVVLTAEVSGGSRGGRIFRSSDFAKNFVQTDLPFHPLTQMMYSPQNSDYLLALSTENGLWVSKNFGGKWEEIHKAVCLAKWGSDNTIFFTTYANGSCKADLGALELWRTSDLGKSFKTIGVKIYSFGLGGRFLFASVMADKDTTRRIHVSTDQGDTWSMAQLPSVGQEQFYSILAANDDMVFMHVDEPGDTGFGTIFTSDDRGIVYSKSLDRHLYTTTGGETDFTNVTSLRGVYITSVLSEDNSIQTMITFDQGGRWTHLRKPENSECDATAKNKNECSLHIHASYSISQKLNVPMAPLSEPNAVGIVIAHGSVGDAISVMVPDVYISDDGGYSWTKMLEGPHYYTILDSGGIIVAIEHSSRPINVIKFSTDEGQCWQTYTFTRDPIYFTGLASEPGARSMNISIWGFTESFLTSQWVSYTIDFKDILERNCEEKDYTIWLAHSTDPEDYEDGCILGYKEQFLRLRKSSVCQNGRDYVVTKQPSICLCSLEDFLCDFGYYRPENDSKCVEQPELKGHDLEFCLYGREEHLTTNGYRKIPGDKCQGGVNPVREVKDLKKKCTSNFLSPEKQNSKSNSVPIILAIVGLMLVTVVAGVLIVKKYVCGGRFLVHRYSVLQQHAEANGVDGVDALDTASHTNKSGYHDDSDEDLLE
Description: uptake of the peptide upon sortilin siRNA. In kind it is cell-based. As to conditions: FIG. 6. The procedure: In vitro testing of the TH19P01 peptide and the TH1902 conjugate compound was conducted.

Regarding “Acetyl-GVRAKAGVRN(Nle)FKSESY (Ac-GVRAKAGVRN[Nle]FKSESY) [TH19P01]”, the “uptake of the peptide” value is on record as “inhibited upon sortilin siRNA”.
